Assays:
[1] = biological target: T1, wild-type H6-PKA-Cα, untreated (alpha isoform of the catalytic subunit of cAMP-dependent protein kinase) (murine, UniProt P05132 2-351); experiment: SPR; OpenSPR-XT; CREBtide coupled to a carboxyl sensor; PKA-Cα flowed at 75 µL/min; 1X HBS-P+, 10 mM MgCl2, 0.01% NP-40, 0.5% BSA, 10 µM AMP-PNP, pH 7.4; kinetics analysis; apparent; conditions: both partners purified
[2] = biological target: T1, wild-type H6-PKA-Cα, untreated (alpha …); experiment: SPR; OpenSPR-XT; CREBtide coupled (EDC/sulfo-NHS) to a carboxyl sensor, surface blocked with monomeric streptavidin and ethanolamine; PKA-Cα 0.078–10 µM flowed at 20 µL/min; 1X HBS-P+, 10 mM MgCl2, 0.01% NP-40, 0.5% BSA, 10 µM AMP-PNP, pH 7.4; equilibrium analysis; apparent; conditions: both partners purified

B1: CREBtide (peptide)
peptide: KRREILSRRPSYR
notes: Coupled by EDC/sulfo-NHS to the carboxyl sensor in SPR; source: bought: Alfa Aesar
Kd [1]: 2.8 ± 0.75 µM | Kd [2]: 3.3 ± 1 µM
